Results reported in paper PMC7596504, “Molecular mechanism of the MORC4 ATPase activation” (Nature Communications, 2020).

What was measured:
[1] = test system: MORC4 ATPase domain (Homo sapiens); assay: fluorescence polarization; details: EMSA DNA: 20 mM Tris-HCl pH 7.5, 150 mM NaCl, 2.5 mM MgCl2, 2 mM DTT, on ice; EMSA NCP: 25 mM Tris-HCl pH 7.5, 75 mM NaCl, 0.005% Tween 20, 10% glycerol, 4 C …
[2] = test system: MORC4 ATPaseCW (Homo sapiens); assay: fluorescence polarization; details: EMSA DNA: 20 mM Tris-HCl pH 7.5, 150 mM NaCl, 2.5 mM MgCl2, 2 mM DTT, on ice; EMSA NCP: 25 mM Tris-HCl pH 7.5, 75 mM NaCl, 0.005% Tween 20, 10% glycerol, 4 C …
LexA = assay: FRET; details: EMSA DNA: 20 mM Tris-HCl pH 7.5, 150 mM NaCl, 2.5 mM MgCl2, 2 mM DTT, on ice, EMSA NCP: 25 mM Tris-HCl pH 7.5, 75 mM NaCl, 0.005% Tween 20, 10% glycerol, 4 C …
Gal4 DNA-binding domain = assay: FRET; details: EMSA DNA: 20 mM Tris-HCl pH 7.5, 150 mM NaCl, 2.5 mM MgCl2, 2 mM DTT, on ice, EMSA NCP: 25 mM Tris-HCl pH 7.5, 75 mM NaCl, 0.005% Tween 20, 10% glycerol, 4 C …

NCP147
K half [1]: 2300 nM | K half [2]: 400 nM

NCP147 LexA
K half (LexA; 1 uM MORC4 ATPaseCW): 2400 nM | K half (LexA; no MORC4): 900 nM

NCP207
K half [1]: 500 nM | K half [2]: 200 nM

NCP252 Gal4
K half (Gal4 DNA-binding domain; no MORC4): 20 nM | K half (Gal4 DNA-binding domain; saturating MORC4 ATPaseCW, 0.3 mM ATP): 100 nM | K half (Gal4 DNA-binding domain; saturating MORC4 ATPaseCW, no ATP): 40 nM
